Laboratory results published in publication PMC10065082 (The Journal of Clinical Investigation, 2023).

Tests used:
Conditions in all cases: both partners purified
WT calmodulin [1] = molecular target: T1, WT calmodulin (UniProt P0DP23 1-149); assay: ITC; Microcal VP-ITC, 25°C, 10 mM Mops, 2 mM EGTA, 1 mM TCEP, 150 mM KCl, 1.93 mM CaCl2, pH 7, 10 uM free Ca2+; NaV1.6CTD (73-110 uM) peptide and WT-CaM (12 uM) or D96V-CaM (16 uM); fitted to a one-binding site per monomer model
T1 construct: calmodulin, recombinant; Legends say the recombinant CaMs were not FLAG tagged in the patch-clamp experiments; nothing is said of tags for ITC; also called WT CaM; WT-CaM

WT calmodulin [2] = molecular target: T1, WT calmodulin; assay: ITC; Microcal VP-ITC, 25°C, 10 mM Mops, 2 mM EGTA, 1 mM TCEP, 150 mM KCl, pH 7, 0 Ca2+; NaV1.5CTD (55-75 uM) or NaV1.6CTD (73-110 uM) peptide and WT CaM or D96V-CaM (5-15 uM); fitted to a model of 1 binding site per monomer
wild-type calmodulin [3] = molecular target: T2, wild-type calmodulin (UniProt P0DP23 1-149); assay: ITC; 0 Ca2+; Microcal VP-ITC, 25°C, 10 mM Mops, 2 mM EGTA, 1 mM TCEP, 150 mM KCl, pH 7; NaV1.5CTD (55-75 uM) or NaV1.6CTD (73-110 uM) peptides and WT CaM or D96V-CaM (5-15 uM); 28 injections; fitted to a model of 1 binding site per monomer
T2 construct: Calmodulin (CaM), recombinant; GenBank M19381.1 (mouse CaM I) is printed only for the transgene of the mice, not for the recombinant protein; also called WT CaM; CaM

wild-type calmodulin [4] = molecular target: T2, wild-type calmodulin; assay: ITC; in the presence of 10 uM free Ca2+; NaV1.6CTD peptide and WT CaM or D96V-CaM

B1: hNaV1.6CTD peptide (residues 1891-1918 of human NaV1.6) (peptide)
peptide: RRKQEEVSAVVLQRAYRGHLARRGFICK
notes: human NaV1.6 carboxy terminal domain stretch with the IQ motif, residues 1891-1918; source: synthetic peptide (LifeTein), at least 90% purity by HPLC
- stoichiometry N (WT calmodulin [1]): 1
- stoichiometry N (WT calmodulin [2]): 1

B2: hNaV1.6CTD peptide (residues 1891-1918 of human NaV1.6) (peptide)
peptide: RRKQEEVSAVVLQRAYRGHLARRGFICK
notes: Carboxy terminal domain peptide with the IQ motif of human NaV1.6, residues 1891-1918; source: synthetic peptide (LifeTein), at least 90% purity by HPLC
- Kd (wild-type calmodulin [3]): 243 nM
- Kd (wild-type calmodulin [4]): 132 nM
